Experimental data published in US20150004133A1, “Compositions And Methods For Treating Steatohepatitis, Liver Fibrosis, and Hepatocellular Carcinoma (HCC)” (The Regents of the University of California, priority 2013, published 2015).

Columns and labels:
primary murine HSCs = assay: Collagen-α1(I)-GFP expression in primary HSCs from Col-GFP reporter mice; type: cell-based, mouse; details: 48 hours; for expression of GFP (percent of cells upregulated collagen-α1(I)-GFP): IL-17A 10 ng/ml
From the text: (§1) FIG. 9. […] Representative images are shown using ×20 objective. […] Deletion of Stat3 in HSCs was achieved by crossing GFAP-Cre mice×floxed Stat3^f/f mice=GFAP^Stat3−/− mice. […] Nuclear translocation of Stat3 (but not phosphor-Smad2/3) was detected in wild type HSCs but not in Stat3-deficient HSCs. Representative images are shown using ×20 objective. (E) IL-17-dependent collagen-α1(I) expression is impaired in Stat3-deficient HSCs.
For this purpose, primary HSCs were isolated from Col-GFP reporter mice (expressing GFP under collagen-α1(I) promoter) or Col-GFP^IL-17RA−/− mice (generated by crossing IL-17RA^−/− mice with Col-GFP mice, FIG. 9B).

[1] = test system: primary wild type HSCs and Stat3-deficient HSCs; assay: IL-17A-dependent collagen-α1(I) expression in wild type and Stat3-deficient HSCs; type: cell-based, mouse; details: IL-17A 10 ng/ml, 8 h
From the text: as §1
HSCs are the only liver cell type that expresses GFAP^1. The role of Stat3 in IL-17A-mediated collagen-α1(I) expression was tested in primary wild type HSCs and Stat3-deficient HSCs, isolated from GFAP^Stat3−/− mice (GFAP^Cre mice×floxed Stat3^f/f mice, FIG. 9D). […] Next, the relevance of IL-17 signaling was accessed in human HSC cell lines.

Stat3 = assay: Nuclear translocation of Stat3 in HSCs (fluorescent microscopy); type: cell-based, mouse; details: primary murine HSCs, IL-17A 10 ng/ml
From the text: as §1
Next, phosphorylation of IL-17 target proteins in KC and HSCs was assessed in vitro (FIG. 18E). […] While the IL-17 signaling pathway in macrophages is characterized^8,22 (and FIG. 18F), IL-17 signaling in HSCs is unknown. […] Thus, similar to macropahges^8,22, NF-κB and Stat3 are downstream targets of IL-17 signaling in HSCs. While NF-κB signaling is required for survival of activated HSC^23, Stat3 may mediate HSC activation by stimulating collagen production.

BDL-operated mice = assay: BDL-induced liver fibrosis in mice with daily administration of IL-22 or IL-17E; type: in vivo; details: 0.5 μg/mouse daily for 7 days, compared to BDL wt mice+PBS
Method: FIG. 11. IL-23 and IL-22 have opposing roles in liver fibrosis. […] Quantification of Sirius Red and α-SMA staining, mRNA expression is shown (p<0.05, compared to BDL wt mice). mRNA expression is fold induction compared to oil-control Wt→wt mice. (D) The percent of inhibition of liver fibrosis was calculated for BM chimeric mice in response to liver injury (in comparison Wt→wt mice, 100%, p<0.01) based on Sirius Red and α-SMA expression. […] Increased fibrosis was detected in IL-22^−/−→wt mice. (E) Administration of IL-22 and IL-17E attenuates liver fibrosis. BDL-operated mice were daily treated with IL-22 (0.5 μg/mouse, n=4), IL-17E (0.5 μg/mouse n=5), or vehicle (PBS) for 7 days, tissues were analyzed by Sirius Red, and α-SMA staining; mRNA expression is shown (p<0.05, compared to BDL wt mice+PBS).
Liver injury was induced in mice by […] with CCl4 (1:4 dilution in corn oil, 200 μl×12 injections^2) or by BDL (3 weeks)^2.
The role of IL-22 and IL-17E in liver fibrosis was examined in BDL-operated mice, injected with IL-22 (0.5 μg/mouse) or IL-17E (0.5 μg/mouse, FIG. 11E).

LX-2 human HSC cell line = assay: Fibrogenic gene mRNA induction in the LX-2 cell line (RT-PCR); type: cell-based; details: LX-2, 10 ng/ml, 72 h, compared with non-stimulated cells
Method: RT-PCR and real time quantitative PCR. […] Methods.
mRNA was isolated and RT-PCR was performed using ABI 7000 sequence detection system (Applied Biosystems), specific primers and SYBRGreen. Ct values of each sample were normalized to 18s mRNA expression. Values were expressed as fold induction in comparison with untreated or sham controls.

**Q.** Which “expression of collagen-α1(I)-GFP” value (primary murine HSCs; both wild type and IL-17RA−/− HSCs, TGF-β1 3 ng/ml, control) does the source give for “TGF-β1: fibrogenic cytokine used as a control; purchased from R&D [reference compound]” here?
**A.** strongly induced

**Q.** What does the source list for “IL-17A: IL-17 family cytokine mainly produced by CD4+ Th17 cells; purchased from R&D”?
**A.** expression of GFP (percent of cells upregulated collagen-α1(I)-GFP) (primary murine HSCs; IL-17RA−/− HSCs (Col-GFP IL-17RA−/−)): 5±2%; expression of GFP (percent of cells upregulated collagen-α1(I)-GFP) (primary murine HSCs; wild type Col-GFP HSCs, baseline 1±0%): 34±7%; collagen-α1(I) expression ([1]; Stat3-deficient HSCs from GFAP Stat3−/− mice): failed to induce; collagen-α1(I) expression ([1]; wild type (Stat3f/f) HSCs): induced; time to nuclear translocation of Stat3 in HSCs (Stat3): 10 to 15 min

B1: IL-22: protein that in humans is encoded by the IL22 gene; cytokine purchased from R&D (protein, UniProt Q9GZX6 34-179, looked up)
Interleukin-22: APISSHCRLDKSNFQQPYITNRTFMLAKEASLADNNTDVRLIGEKLFHGVSMSERCYLMKQVLNFTLEEVLFPQSDRFQPYMQEVVPFLARLSNRLSTCHIEGDDLHIQRNVQKLKDTVKKLGESGEIKAIGELDLLFMSLRNACI
**Q.** For B1, which “reduction of Sirius Red staining” value (BDL-operated mice) is on record?
**A.** 3 fold

**Q.** And the “reduction of mRNA for Col-α1(I)” value (BDL-operated mice)?
**A.** 3 fold

**Q.** And the “reduction of mRNA for α-SMA” value (BDL-operated mice)?
**A.** 2.5 fold

B2: IL-17F: IL-17 family cytokine; purchased from R&D (protein, UniProt Q96PD4 31-163, looked up)
Interleukin-17F: RKIPKVGHTFFQKPESCPPVPGGSMKLDIGIINENQRVSMSRNIESRSTSPWNYTVTWDPNRYPSEVVQAQCRNLGCINAQGKEDISMNSVPIQQETLVVRRKHQGCSVSFQLEKVLVTVGCTCVTPVIHHVQ
**Q.** What does the source list for B2?
**A.** induction of Col-α1(I) mRNA (LX-2 human HSC cell line): 7 fold; induction of α-SMA mRNA (LX-2 human HSC cell line): 6 fold

B3: IL-17E: Interleukin 25; cytokine that binds to IL-17RA and IL-17RB heterodimers (protein)
chain: YSHWPSCCPSKGQDTSEELLRWSTVPVPPLEPARPNRHPESCRASEDGPLNSRAISPWRYELDRDLNRLPQDLYHARCLCPHCVSLQTGSHMDPRGNSELLYHNQTVFYRRPCHGEKGTHKGYCLERRLYRVSLACVCVRPRVMG
**Q.** What does the source list for B3?
**A.** reduction of Sirius Red staining (BDL-operated mice): 3 fold; reduction of mRNA for Col-α1(I) (BDL-operated mice): 3 fold; reduction of mRNA for α-SMA (BDL-operated mice): 2.5 fold
